Test results: patent US20250034266A1 (ZAI LAB SHANGHAI, published 2025)

T1: human CCR1 (human, UniProt P32246 1-355)
T1 construct: whole, on cells
T1 sequence (looked up): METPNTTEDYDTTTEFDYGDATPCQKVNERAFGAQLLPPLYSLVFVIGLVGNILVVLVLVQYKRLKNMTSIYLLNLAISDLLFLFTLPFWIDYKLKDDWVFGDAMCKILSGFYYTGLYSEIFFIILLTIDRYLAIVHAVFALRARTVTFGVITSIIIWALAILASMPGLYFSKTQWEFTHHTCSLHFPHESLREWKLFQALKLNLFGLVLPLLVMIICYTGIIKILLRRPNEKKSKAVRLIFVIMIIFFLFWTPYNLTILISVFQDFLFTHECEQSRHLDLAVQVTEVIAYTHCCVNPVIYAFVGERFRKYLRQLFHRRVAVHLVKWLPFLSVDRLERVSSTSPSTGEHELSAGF

T2: human CCR4 (human, UniProt P51679 1-360)
T2 construct: whole, on cells
T2 sequence (looked up): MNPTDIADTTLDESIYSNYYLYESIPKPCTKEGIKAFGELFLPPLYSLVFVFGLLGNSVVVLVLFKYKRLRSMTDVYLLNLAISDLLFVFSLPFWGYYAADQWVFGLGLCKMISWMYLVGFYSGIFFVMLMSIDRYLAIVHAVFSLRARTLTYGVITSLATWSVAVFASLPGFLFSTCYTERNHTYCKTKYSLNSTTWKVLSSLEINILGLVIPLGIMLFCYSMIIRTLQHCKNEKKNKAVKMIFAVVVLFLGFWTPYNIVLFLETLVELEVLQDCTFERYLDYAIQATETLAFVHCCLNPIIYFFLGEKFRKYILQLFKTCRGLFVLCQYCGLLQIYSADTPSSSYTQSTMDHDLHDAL


What was measured:
human CCR8 [1] = molecular target: T3, human CCR8 (human, UniProt P51685 1-355); test: cell-based or functional assay
human CCR8 [2] = molecular target: T3, human CCR8; test: FACS on HEK293-human CCR8 cells
human CCR1 = molecular target: T1, human CCR1; test: FACS on ExpiCHO-S-human CCR1 cells
Description: (§1) ExpiCHO-S cells were transiently transfected with human CCR1 or human CCR4. A total of 5×10⁴ cells for each well were seeded in 96-well plates and washed with FACS buffer (DPBS containing 1.5% FBS) for once. […] Cells were incubated with 50 μL of diluted antibodies at 4° C. for 1 hour. […] After primary antibody incubation, cells were washed for 3 times by FACS buffer. Then, cells were stained by Alexa Flu647 labeled anti-human IgG secondary antibody (Jackson ImmunoResearch, #109606170) or Alexa Flu647 labeled anti-mouse IgG secondary antibody (Jackson ImmunoResearch, #115605072) at 1:600 dilution in FACS buffer for 0.5 hour at 4° C. Flow cytometry was performed to measure the binding.

human CCR4 = molecular target: T2, human CCR4; test: FACS on ExpiCHO-S-human CCR4 cells
Description: as §1

cynomolgus CCR8 [3] = molecular target: T4, cynomolgus CCR8 (cynomolgus, UniProt G7NYJ2 1-355); test: FACS on ExpiCHO-S-cynomolgus CCR8 cells
T4 construct: whole, on cells

human CCR8 [4] = molecular target: T3, human CCR8; test: FACS, competition with AF647-human CCL1 on CHO-K1-human CCR8 cells
human CCR8 [5] = molecular target: T3, human CCR8; test: FACS on HEK293-human CCR8 cells; remark: listed apart in the source
How it was run: (§2)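 Antibodies, 3-fold dilutions from 100 nM to 0.0017 nM, incubated with 5×10⁴ HEK293 cells in FACS buffer (1.5% FBS) 1 h at 4 °C. Binding detected by flow cytometry after Alexa Fluor 647 anti-human or anti-mouse IgG secondary (1:600, 0.5 h, 4 °C).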

human CCR8 [6] = molecular target: T3, human CCR8; test: FACS on HEK293-human CCR8 cells; remark: listed apart in the source
Description: (§3) A total of 5×10⁴ cells for each well were seeded in 96-well plates and washed with FACS buffer (DPBD containing 1.5% FBS) for once. Antibodies were prepared with 3-fold serial dilution ranging from 100 nM to 0.0017 nM in FACS buffer. Cells were incubated with 50 μL of diluted antibodies at 4° C. for 1 hour. […] After primary antibody incubation, cells were washed for 3 times by FACS buffer. Then, cells were stained by Alexa Flu647 labeled anti-human IgG secondary antibody (Jackson ImmunoResearch, #109606170) or Alexa Flu647 labeled anti-mouse IgG secondary antibody (Jackson ImmunoResearch, #115605072) at 1:600 dilution in FACS buffer for 0.5 hour at 4° C. After washed for 3 times, Flow cytometry was performed to measure the binding.

cynomolgus CCR8 [7] = molecular target: T4, cynomolgus CCR8; test: FACS on HEK293-cynomolgus CCR8 cells
How it was run: as §2

cynomolgus CCR8 [8] = molecular target: T4, cynomolgus CCR8; test: FACS on HEK293-cynomolgus CCR8 cells; remark: listed apart in the source
Description: as §3

human CCR8 [9] = molecular target: T3, human CCR8; test: FACS, competition with AF647-human CCL1 on CHO-K1-human CCR8 cells; remark: listed apart in the source
human CCR8 [10] = molecular target: T3, human CCR8; test: as above; remark: listed apart in the source
human CCR8 [11] = molecular target: T3, human CCR8; test: FACS on CHO-K1-human CCR8 cells
cynomolgus CCR8 [12] = molecular target: T4, cynomolgus CCR8; test: FACS on HEK293-cynomolgus CCR8 cells; remark: listed apart in the source
human CCR8 [13] = molecular target: T3, human CCR8; test: FACS on HuT78 cells (endogenous human CCR8)
How it was run: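 HuT78 cells with endogenous human CCR8 were incubated with diluted antibodies for 1 h at 4 °C, washed, then stained 0.5 h at 4 °C with Alexa Fluor 647 anti-human IgG (1:600). Binding measured by flow cytometry.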

human CCR8 [14] = molecular target: T3, human CCR8; test: FACS, competition with CCL1 on CHO-K1-human CCR8 cells
human CCR8 [15] = molecular target: T3, human CCR8; test: cell-based or functional assay; remark: listed apart in the source
human CCR8 [16] = molecular target: T3, human CCR8; test: cell-based or functional assay; remark: listed apart in the source
human CCR8 [17] = molecular target: T3, human CCR8; test: FACS on CHO-K1-human CCR8 cells; remark: listed apart in the source
cynomolgus CCR8 [18] = molecular target: T4, cynomolgus CCR8; test: FACS on HEK293-cynomolgus CCR8 cells; remark: listed apart in the source
human CCR8 [19] = molecular target: T3, human CCR8; test: FACS on HuT78 cells (endogenous human CCR8); remark: listed apart in the source
human CCR8 [20] = molecular target: T3, human CCR8; test: FACS, competition with CCL1 on CHO-K1-human CCR8 cells; remark: listed apart in the source

T3 sequence (P51685 whole entry): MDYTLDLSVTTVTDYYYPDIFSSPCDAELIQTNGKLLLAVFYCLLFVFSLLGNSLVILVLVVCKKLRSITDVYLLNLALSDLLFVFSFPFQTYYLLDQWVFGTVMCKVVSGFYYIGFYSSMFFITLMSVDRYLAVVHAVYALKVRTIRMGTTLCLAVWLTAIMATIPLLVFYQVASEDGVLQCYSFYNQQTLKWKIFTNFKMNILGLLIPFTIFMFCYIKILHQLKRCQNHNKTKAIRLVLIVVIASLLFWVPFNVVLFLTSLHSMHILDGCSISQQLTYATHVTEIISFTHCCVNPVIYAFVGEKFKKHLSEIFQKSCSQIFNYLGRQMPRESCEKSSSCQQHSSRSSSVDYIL
T4 sequence (G7NYJ2 entry or part of it): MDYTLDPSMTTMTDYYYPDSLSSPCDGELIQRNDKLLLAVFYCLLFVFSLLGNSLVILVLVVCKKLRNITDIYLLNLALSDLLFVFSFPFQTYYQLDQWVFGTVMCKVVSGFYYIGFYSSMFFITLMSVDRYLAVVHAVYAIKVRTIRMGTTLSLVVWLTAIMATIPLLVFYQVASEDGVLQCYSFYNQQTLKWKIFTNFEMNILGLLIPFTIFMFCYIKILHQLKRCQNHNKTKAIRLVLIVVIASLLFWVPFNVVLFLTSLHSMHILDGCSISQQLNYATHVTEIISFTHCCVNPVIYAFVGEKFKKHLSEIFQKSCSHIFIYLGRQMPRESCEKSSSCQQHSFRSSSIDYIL

Binder | EC50, ADCC with human PBMC (human CCR8 [1]) [nM] | Max specific lysis (%), ADCC with human PBMC (human CCR8 [1]) [%] | EC50 (human CCR8 [6]) [nM] | EC50 (cynomolgus CCR8 [8]) [nM] | IC50 (human CCR8 [10]) [nM] | EC50 (human CCR8 [11]) [nM] | Max MFI (human CCR8 [11]) [MFI] | EC50 (cynomolgus CCR8 [12]) [nM] | Max MFI (cynomolgus CCR8 [12]) [MFI] | Max MFI (human CCR8 [13]) [MFI] | IC50 (human CCR8 [14]) [nM] | Max Inhibition (%) (human CCR8 [14]) | other results
Hu348-4 (antibody, human IgG1, V domains shown, humanized, human IgG1; also called Hu348-4 HuIgG1) VH: EVQLVESGGGLVQPGGSLKLSCATSGFSFSNYRMHWLRQASGKGLEWVGVITVKSDNYGANYAASVKGRFTISRDDSKSSVYLQMNSLKTEDTAVYYCSSLGRVAYWGQGTLVTVSS VL: DIQMTQSPSSVSASVGDRVTITCKASQNVDTNVVWYQQKPGQSPKALIYSASSRYSGVPSRFSGSGSGTDFTLTISSLQPEDFATYYCQQHNSFPLTFGQGTKLEIK | 0.517 | 13.5 | – | – | – | – | – | – | – | – | – | – | EC50 (human CCR8 [2]): 0.109 nM; Max MFI (human CCR8 [2]): 5120 MFI; binding result (human CCR1): no binding (tested: 200 nM); binding result (human CCR4): no binding (tested: 200 nM); EC50 (cynomolgus CCR8 [3]): 0.087 nM; Max MFI (cynomolgus CCR8 [3]): 534 MFI; IC50 (human CCR8 [4]): 0.151 nM; Max Inhibition (%) (human CCR8 [4]): 94.6%
CM149 (antibody, V domains shown, CM149 is not defined in words; also called CM149 HuIgG1; parental antibody CM149) VH: EVQLVESGGGLVQPKGSLKLSCAASGFTFNTYAMNWVRQAPGKGLEWVARIRSKSNFYATYYADSVKDRFTISRDDSQDMLYLQMNILKTEDTAIYYCVRGRDYGSSYAMDYWGQGTSVTVSS VL: DIVMTQAAPSVPVTPGESVSISCRSSKSLLHSNANTYLYWFLQRPGQSPQLLIYRMSNLASGVPDRFSGSGSGTAFTLRISRVEAEDVGVYYCMQHLEYPLTFGAGTKLELK | 0.067 | 10.3 | 0.18 | 0.263 | 0.708 | – | – | – | – | – | – | – | EC50 (human CCR8 [5]): 0.142 nM; Max MFI (human CCR8 [5]): 7100 MFI; EC50 (cynomolgus CCR8 [7]): 0.235 nM; Max MFI (cynomolgus CCR8 [7]): 18100 MFI; IC50 (human CCR8 [9]): 0.681 nM; Max Inhibition (%) (human CCR8 [9]): 97.8%
Hu149-9 (antibody, human IgG1, V domains shown, humanized, human IgG1; also called Hu149-9 HuIgG1) VH: EVQLVESGGGLVQPGGSLKLSCAASGFTFNTYAMNWVRQASGKGLEWVGRIRSKSNFYATAYAASVKGRFTISRDDSKNTAYLQMNSLKTEDTAVYYCTRGRDYGSSYAMDYWGQGTLVTVSS VL: DIVMTQSPLSLPVTPGEPASISCRSSKSLLHSNANTYLYWFLQKPGQSPQLLIYRMSNLASGVPDRFSGSGSGTDFTLKISRVEAEDVGVYYCMQHLEYPLTFGGGTKVELK | 0.06 | 7.56 | 0.072 | 0.12 | 0.119 | 0.0487 | 625000 | 0.0824 | 3.53e+06 | 32300 | 0.087 | 99.2 | –
Hu149-12 (antibody, human IgG1, human IgG1; suffix G1 read as wild type as for Hu149-11G1; also called Hu149-12G1) heavy: not shown VL: DIVMTQSPLSLPVTPGEPASISCRSSKSLLHSNANTYLYWFLQKPGQSPQLLIYRMSNLASGVPDRFSGSGSGTDFTLKISRVEAEDVGVYYCMQHLEYPLTFGGGTKVELK | – | – | – | – | – | 0.0675 | 638000 | 0.199 | 4.04e+06 | 26900 | 0.0982 | 100 | IC50, inhibition of CCL1 induced β-Arrestin recruitment (human CCR8 [15]): 0.35 nM; Max Inhibition (%), CCL1 induced β-Arrestin recruitment (human CCR8 [15]): 85.8%; IC50, blocking of cell migration induced by CCL1 (human CCR8 [16]): 0.953 nM; EC50 (human CCR8 [17]): 0.093 nM; Max MFI (human CCR8 [17]): 199000 MFI; EC50 (cynomolgus CCR8 [18]): 0.17 nM; Max MFI (cynomolgus CCR8 [18]): 3.61e+06 MFI; EC50 (human CCR8 [13]): 0.17 nM; EC50 (human CCR8 [19]): 0.25 nM; Max MFI (human CCR8 [19]): 48100 MFI; IC50 (human CCR8 [20]): 0.184 nM; Max Inhibition (%) (human CCR8 [20]): 99.5%
